Measurements from WO2011147762A2.

Key:
[1] = biological target: ED-B fibronectin antigen protein (recombinant), bound to CNBr activated sepharose 4B (UniProt P02751); assay: ED-B sepharose column, % of total radioactivity bound; Study A; methionine 5 mg/mL; day 1
[2] = biological target: ED-B fibronectin antigen protein (recombinant), bound to CNBr activated sepharose 4B (UniProt P02751); assay: ED-B sepharose column, % of total radioactivity bound; Study A; methionine 5 mg/mL; day 7
[3] = biological target: ED-B fibronectin antigen protein (recombinant), bound to CNBr activated sepharose 4B (UniProt P02751); assay: ED-B sepharose column, % of total radioactivity bound; Study A; sodium thiosulfate 10 mg/mL; day 0

Sequence of 131I L19-SIP (radioiodinated L19 SIP homodimer) (chain): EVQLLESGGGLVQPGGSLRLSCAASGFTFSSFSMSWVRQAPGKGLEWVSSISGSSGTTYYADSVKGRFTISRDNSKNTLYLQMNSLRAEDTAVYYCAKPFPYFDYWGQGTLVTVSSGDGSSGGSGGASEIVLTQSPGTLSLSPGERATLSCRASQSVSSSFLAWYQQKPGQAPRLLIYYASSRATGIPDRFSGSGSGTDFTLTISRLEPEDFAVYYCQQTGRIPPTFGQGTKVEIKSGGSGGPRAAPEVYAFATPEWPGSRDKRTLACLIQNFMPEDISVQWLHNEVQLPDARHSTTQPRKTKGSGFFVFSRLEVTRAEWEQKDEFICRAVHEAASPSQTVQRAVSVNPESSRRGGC
Sequence of 131I L19-SIP (radioiodinated L19 SIP homodimer) (chain): as above
Sequence of UniProt P02751 (P02751 1266-1356 limits assumed): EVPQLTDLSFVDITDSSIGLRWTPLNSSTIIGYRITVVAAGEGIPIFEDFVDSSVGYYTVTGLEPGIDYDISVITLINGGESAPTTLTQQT

Immunoreactivity (%) [1]: 88%
Immunoreactivity (%) [2]: 61%
Immunoreactivity (%) [3]: 96.2%
Substance: 131I L19-SIP (radioiodinated L19 SIP homodimer)
